The source of these data is patent US20040204561A1 (published 2004).

Ends that are not written are not given here. bbDTPA = DTPA chelating ligand bonded through a carbon of its ethylene backbone

Data set [1] concerns the molecule itself. As to the kind of experiment: self-association, observation of solutions. From the text:
First, solutions of EP 1272L (FW=2,243 Da) were concentrated and purified by centrifugation in a filter device with a nominal molecular weight limit of 300,000 Da. The formation of high molecular weight aggregates allowed EP1272L to be retained by the filter device. […] Third, SEC-LS column retention and light scattering measurements of EP1272L were consistent with a large species having a mass distribution of 4×10⁶ to 13×10⁶ Da, and a hydrodynamic radius in the range of 155 nm to 210 nm.

Data set [2] deals with T1, streptavidin (on magnetic beads) (UniProt P22629 37-163, limits assumed).
T1 construct: also called streptavidin beads; streptavidin-coated beads
Put plainly: capture on streptavidin magnetic beads, gadolinium ICP. How it is done:
The three EP1595/EP1272 formulations, one EP1596/EP1272 formulation, and an EP1272 formulation were assayed for affinity to streptavidin magnetic beads. Each sample was diluted so as to maintain a constant ratio of biotinylated peptide and streptavidin binding sites in the assay. Solutions without biotin were treated as though they contained 0.5% EP1595. After several rinses the magnetic beads were digested in acid. The extent of capture was quantified by gadolinium ICP.

T1 sequence (P22629 37-163 limits assumed): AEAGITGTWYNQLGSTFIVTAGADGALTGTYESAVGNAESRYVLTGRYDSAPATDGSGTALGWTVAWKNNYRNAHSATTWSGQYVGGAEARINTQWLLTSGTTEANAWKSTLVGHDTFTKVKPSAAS

B1: EP1272L (peptide)
peptide: bbDTPA-GAEAEAKAKAEAEAKAK
modifications: also: bbDTPA complexed to Gd(III)
notes: also called EP1272L aggregates alone; EP1272 formulation
Take B1: the binding result in data set [1] and in data set [2] was “binds” throughout.
